target: RSV F on RSV-A2 virus (Respiratory syncytial virus (RSV-A2)); assay: cell-based or functional assay

Binder | Neutralization IC50 (RSV subtype A) [µg/mL]
ADI-41242 (antibody, V domains shown) VH: EVQLVESGGGVVQPGRSLRLSCAASGFPFSSYAMHWVRQAPGKGLEWVAVIWFEGNEKYFADSVEGRFTISRDNSKNTLYLQMNSLRAEDTARYYCARFYFGAFDIWGQGTLVTVSS VL: not shown | > 25
ADI-41243 (antibody, V domains shown) VH: QVQLVQSRAEVKKPGESLKISCKGSLHSFSNNWIGWVRQMPGKGLEWMGIIFPDDSDTRYSPSFQGQVTISADKSISTAYLQWSSLKASDTAIYYCGTVVTLIQGVADWGQGTLVTVSS VL: QPVLTQPHSVSESPGKTVTISCTRSSGSIDSSYVQWYQQRPGSSPTTVIYEDNLRPSGVPDRFSGSIDSSSNSASLTISGLKTEDEAEYYCQSYDSSNPVVFGGGTKLTVL | > 25
ADI-41239 (antibody, V domains shown) VH: QITLKESGPTLVKPTQTLTLTCTFSGFSLTTTGVGVGWIRQPPGKALEWLALIYWDDDKRYSPSLKNRITITKDTSKKQVVLTMTNMDPADTATYYCAHISTVVTYDSSGSYYVLINWFDPWGQGTLVTVSS VL: not shown | > 25
ADI-41246 (antibody, V domains shown) VH: EVQLLESGPGLVKPSETLSLTCIVSGGSISSYNWNWIRQPPGKGLEWIGYIYNSGSTNYNPSLKSRVTISVDTSKNQFSLKLSSVTAADTAVYYCARYFDYGSGGFDYWGQGTLVTVSS VL: ETTLTQSPGTLSLSPGERATLSCRASQSVTSTYLAWYQQKPGQAPRLLIYGASSRATGIPDRFSGSGSGTDFTLTISRLEPEDFAVYYCQQFDSSLTFGGGTKVEIK | > 25
ADI-41252 (antibody, V domains shown) VH: EVQLVQSGAEVKKPGESLKISCMGSGYNFPNYWIGWVRQMSGKGLEWMGIIYPDDSDTTYSPSFQGQVIFSADKSISTAYLQWSSLKASDTAMYFCVRLDKTTQIDFWGQGTLVTVSS VL: EIVLTQSPSSLSASVGDRVTITCQASQDISNYLNWYQQKPGKAPKLLIYDVSNLETGVPSRFSGSGSGTDFTFTISSLQPEDIATYYCQQHDNLPLTFGQGTRLEIK | > 25
ADI-41254 (antibody, V domains shown) VH: EVQLVESGGGLVQSGGSLRLSCAASGFTFSSYEMNWVRQAPGKGLEWVSYTTNNGRTIYYADSVKGRFTISRDNAKNSLFLQMNGLRAEDTAVYYCARGIQFSRVDYAMDVWGQGTTVTVSS VL: SYELTQPPSVSGTPGQRITISCSGSSSNIASNTVNWYQHLPGTAPKLLIYSDNQRPSGVPDRFSGSKSGTSASLAISGLQSEDEADYYCAIWDDSLNASYVFGTGTKLTVL | > 25
ADI-41247 (antibody, V domains shown) VH: QVQLVQSGAEVKKPGASLQVSCKASGYTFTDSYFHWVRQAPGQGLEWMGRISPHSGGTNYAQKFQGRVTMTRDTSISTAYLELSRLRSDDTAVYYCATEGPRGPFRFDPWGQGTLVTVSS VL: NFMLTQPHSVSESPGKTVTISCTRSSGSIASNYVQWYQQRPGSSPTTVIYEDNQRPSGVPDRFSGSIDSSSNSASLTISGLMTEDEADYYCQSYDSSNWVFGGGTKLTVL | > 25
ADI-41241 (antibody, V domains shown) VH: QVQLVQSGAEVKKPGASVQVSCKASGYTFTGDYMHWVRQAPGQGLEWMGRINPNSGGTNYAQKFQGRVTMTRDTSISTAYMELSRLRSDDTAVYYCARAAAEYSSSSPTSYYYMDVWGKGTTVTVSS VL: EIQMTQSPSSLSASVGDRVTITCRASQNIYSFLNWYQQKPGKAPKLLIYAASSLQSGVPSRFSGSGSATDFTLTISSLQPEDFATYYCQQSYSPPQITFGQGTKVDIK | 18.8
ADI-41248 (antibody, V domains shown) VH: QVQLVQSGGGVVQPGRSLRLSCAASGFTFSSYSMHWVRQAPGKGLEWMAVCWYDGSNIYYADSVKGRFTISRDNSKNTVYLQMNSLRAEDTAVYYCARDDRYCSGGTCLSAFDIWGQGTMVTVSS VL: ETTLTQSPSSLSASVGDRVTITCRASQSISSYLNWYQQKPGRAPKLLIYTTSSLQSGVSSRFSGSGSGTDFTLTINSLQPEDFATYYCQQSYSTPNTFGQGTKVEIK | > 25
ADI-41249 (antibody, V domains shown) VH: QVQLVQSGAEVKKPGESLKISCQVSRDTSTTYWIGWVRQMPGKGLEWMGIIFPGDSDTRYSPSFQGQVTISADKSIMTAYLQLTSLKASDTAMYYCATQALRGAFDIWGQGTMVTVSS VL: DIRLTQSPSSLSASVGDRVTITCQASQDISNYLNWYQQKPGKAPKLLIYDASYLETGVPSRFSGSGSGTDFTFTISSLQPEDFATYYCQQYDDLLFTFGPGTKLEIK | 0.01
ADI-41238 (antibody, V domains shown) VH: EVQLLESGGGLVKPGGSLRLSCAASGFTFRDYYMSWIRQAPGKGLEWVSYISSSSSYTEYADSVKGRFTISRDNAKKSLYLQMNSLRTEDTAVYYCARVITQAGTGTTYYMDVWGKGTTVTVSS VL: QSVLTQPPSVSGAPGQRVTISCTGSSSNIGTGYDVHWYQQLPGTAPKLLIYANNNRPSGVPDRFSGSKSGTSASLAITGLQAEDEADYYCQSYDSSLSLVFGGGTKLTVL | 0.13
ADI-41240 (antibody, V domains shown) VH: QVQLQQWGAGLLKPSETLSLICDVYGGSFSDYYWSWIRQSPGKGLEWIGEINHSGSTSFHPSLKSRISISIDTSNNQFSLNLSSMTAADTAVYYCARGTLRGYFDYWGQGTLVTVSS VL: EIVLTQSPSTLSAFVGDRVTITCRASQSISRWLAWYQQKPGKAPNLLISEASSLESGVPSRFSGSGSGTEFTLTISSLQPDDLGTYYCQQYNGYLWTFGQGTKVEIK | > 25
ADI-41236 (antibody, V domains shown) VH: QVQLVQSGGGLVKPGGSLRLSCTASGFTFSDYYMDWIRQAPGKGLEWVSSISSSSTYTKYADSVKGRFTISRDNAKNSLFLQMNSLRAEDTAVYYCVRNLGPYCSSTSCFVFDYWGQGTLVTVSS VL: QSVLTQPPSVSGAPGQRVSISCTGSSSNIGAGYEVHWYKQVPGTAPRLLMYDNTNRPSGVPDRVSGSKSGTSASLAITGLQAEDEADYYCQSYDNSLNKSVFGGGTKVTVL | > 25
ADI-41250 (antibody, V domains shown) VH: QVQLQQWGAGLLKPSETLSLTCAVSGESLTGYFWSWIRQPPGKGLEWIGEVSHSGSTNYNPSLKSRVTMSVDTSKTQFSLKLNSVTAADTAVYYCARGYDYWSGTARYFDYWGQGILVTVSS VL: QPVLTQPASVSGSPGQSITISCTGTSSDVGGYNYVSWYQQHPGKAPKLMIYDVSNRPSGVSSRFSGSKSGNTASLTISGLQAEDEGDYYCSSYRSSTTSRVFGGGTKVTVL | > 25
ADI-41237 (antibody, V domains shown) VH: EVQLVESGGGLVKPGGSLRLSCAASGFTFSDYYMNWIRQAPGKGLEWVSDISPSSSYTNYADSVKGRFTISRDNAKNSLYLQMNSLRAEDTAMYYCARRGSCTGGVCSFDYWGQGTLVTVSS VL: QPGLTQPPSVSGAPGQRVTISCTGSSSNIGAGYDVNWYQQLPGTAPKLLIYDNSNRPSGVPDRFSGSKSGTSASLAITGLQAEDEADFYCQSYDSSLSGFVFGTGTKVTVL | 0.04
ADI-41251 (antibody, V domains shown) VH: EVQLVESGGGLVKPGGSLRLSCAASGFTFSDYYMTWIRQAPGKGLEWVSNISGGSSYTNYADSVKGRFTISRDNAKNSVYLQMNSLRAEDTAVYYCARVGCSGGVCNFFLDYWGQGTLVTVSS VL: QSVLTQPPSVSGAPGQRVTISCTGSSSNIGAGYDVHWYQQLPGTAPKLLIYDNTNRPSGVPDRFSGSKSGTSASLAITGLQAEDEADYYCQSYDSSLSGYVFGTGTKVTVL | 0.11
ADI-41245 (antibody, V domains shown) VH: QVQLVESGGGLVKPGGSLRLSCAASGFSFSAYYMSWIRQAPGKGLEWISNISGGSSYANYADSVEGRFTISRDNAKNSLYLQMNSLRAEDTAVYYCAREFQTYYYMDVWGKGTTVTVSS VL: QPVLTQPPSVSGAPGQRVTISCTGSSSNIGAGYEVHWYQQLPGTAPKLLIYGNNNRPSGVPDRFSGSKSGTSASLAITGLQAEDEADYYCQSYDSSLSGSVFGGGTKLTVL | 0.71
ADI-41256 (antibody, V domains shown) VH: QVQLVQSGAEVKSPGSSATVSCKASGGTFGSYGISWVRQAPGQGLEWIGAIMPMFGTTNYAQKFQGRVTMTADESTSTVYMDVSSLRPDDTAVYYCVRDVFYDILTGYYDADYYHHYMDVWGKGTTVTVSS VL: DIVMTQSPLSLPVTLGQPASISCRSGQSLVHSDGNTYLNWFQQRPGQSPRRLIYKVSNRGSGVPDRFSGSGSGTDFTLKISRVEAEDVGVYFCMQGTHWPRTFGQGTKVDIK | 0.02
ADI-41257 (antibody, V domains shown) VH: QVQLVESGAEVKKPGSSVKVSCKASEGTFSSYGISWVRQAPGQGPEWMGEINPMFGTAKYAQKFQGRVTITVDESTSTADMELSSLTSEDTAVYYCAREFLGQCSETNCPTPSRHLDYWGQGTLVTVSS VL: EIVMTQSPSSLSASVGDRVTITCRASRTISSYLNWYQQKPGKAPKLLIYATSNLQSGVPSRFSGSGSGADFTLTISSLQPEDFATYYCQQTYSTPGFGPGTKVDIK | > 25
ADI-41255 (antibody, V domains shown) VH: EVQLVESGGGLVQPGGSLRISCAASGLTFSSYAMSWVRQAPGQGLEWVSSVSGSGVSTYYADSVKGRFTISRDNSKNTLYLQMNSLRAEDTAVYYCAKEDYYHFYMDVWGNGTTVTVSS VL: not shown | > 25
ADI-41253 (antibody, V domains shown) VH: EVQLVQSGPGLVKPSETLSLTCTVSGDSISSSDYSYYWGWIRQPPGKGLEWIASLSYSGKTYSQSSLKSRVIISVDTSKKQFSLKLSSVTAADTAVYYCAVTRCYVCTSEGDSFDMWGQGTMVTVSS VL: DIVLTQTPGTLSLSPGERATLSCRASQSISGNYLAWYQHKPGQAPRLLIYGASTRATGIPDRFSGSGSGTDFPLTISRLEPEDFAVYYCQQYATSPYTFGQGTKVDIK | 0.03
ADI-41244 (antibody, V domains shown) VH: QVTLKESGGGLIQPGGSLRLSCAVSGFTVSSKYMSWVRQAPGKGLEWVSVIYGGGSTYYTDSVKGRFTISRDNSNNTLYLQMNSLRAEDTAIYYCAREARSYNYDYVGNDAFDIWGQGTTVTVSS VL: DIVLTQTPDSLAVSLGERATINCKSSQSVLNNFNNKNYLAWYQQKPGQPPKLLIYWASTRESGVPDRFSGSGSGTDFTLTITSLQAEDVAIYYCQQYYRTPPYTFGQGTKVDIK | > 25

Reference: patent publication US20260258115A1 (MAPP BIOPHARMACEUTICAL, published 2026)
